# Measured values: patent US20180022779A1 (UNIVERSITY OF VIRGINIA PATENT FOUNDATION, published 2018)
# Biological target: T1, mouse eNOS (endogenous, thoracodorsal arteries) (mouse, UniProt P70313 2-1202)
# T1 sequence (looked up): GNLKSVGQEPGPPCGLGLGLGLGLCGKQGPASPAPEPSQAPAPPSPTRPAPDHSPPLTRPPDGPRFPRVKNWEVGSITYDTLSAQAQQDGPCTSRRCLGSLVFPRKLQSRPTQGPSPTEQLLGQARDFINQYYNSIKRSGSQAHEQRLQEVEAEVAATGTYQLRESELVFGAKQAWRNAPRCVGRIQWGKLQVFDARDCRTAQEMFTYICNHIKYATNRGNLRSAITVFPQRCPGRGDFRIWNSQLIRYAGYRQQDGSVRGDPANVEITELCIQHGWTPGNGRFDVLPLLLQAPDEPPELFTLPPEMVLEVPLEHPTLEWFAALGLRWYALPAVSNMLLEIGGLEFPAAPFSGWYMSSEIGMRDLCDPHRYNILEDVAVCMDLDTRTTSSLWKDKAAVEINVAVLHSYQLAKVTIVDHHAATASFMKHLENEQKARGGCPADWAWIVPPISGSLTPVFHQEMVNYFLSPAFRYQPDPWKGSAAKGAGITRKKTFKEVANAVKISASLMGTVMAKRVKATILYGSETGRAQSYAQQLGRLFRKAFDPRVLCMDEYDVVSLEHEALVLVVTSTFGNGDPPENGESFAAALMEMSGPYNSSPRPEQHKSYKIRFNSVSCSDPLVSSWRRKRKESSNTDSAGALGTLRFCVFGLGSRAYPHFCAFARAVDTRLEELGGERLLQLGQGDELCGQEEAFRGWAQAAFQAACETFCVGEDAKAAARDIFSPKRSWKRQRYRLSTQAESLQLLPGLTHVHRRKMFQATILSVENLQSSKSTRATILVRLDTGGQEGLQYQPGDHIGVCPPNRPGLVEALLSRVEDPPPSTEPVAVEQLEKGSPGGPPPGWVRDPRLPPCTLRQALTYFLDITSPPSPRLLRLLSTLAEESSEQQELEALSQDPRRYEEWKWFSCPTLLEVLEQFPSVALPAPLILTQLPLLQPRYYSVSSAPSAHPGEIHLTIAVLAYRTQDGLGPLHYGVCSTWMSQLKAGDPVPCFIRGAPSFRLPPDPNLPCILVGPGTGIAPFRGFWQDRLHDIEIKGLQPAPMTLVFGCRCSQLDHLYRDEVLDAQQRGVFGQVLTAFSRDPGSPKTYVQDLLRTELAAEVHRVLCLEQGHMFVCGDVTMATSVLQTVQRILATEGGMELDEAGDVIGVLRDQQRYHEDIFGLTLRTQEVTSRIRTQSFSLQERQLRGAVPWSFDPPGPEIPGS
# Test: cell-based or functional assay
binder,measurement,value
YGRKKRRQRRRLSFPTTKTYF [Hb α X peptide (HIV-tat tag linked to LSFPTTKTYF)],"EC50 of phenylephrine ([PE] producing half of the maximum effect), thoracodorsal arteries treated with Hb α X",6.8 µM
